From patent US20220119506A1 (NOVOBIND LIVESTOCK THERAPEUTICS, published 2022)
Substitutions are numbered along the chain they refer to.

B1: NBX0817 (VHH)
VHH: QVQLQESGGGLVQAGGSLRLSCGASGGTNSNYAMGWFRQPPGKKREFVAALSWSGYNTHYADSVKGRFTISRPSARTVDLQMNNVKPEDTAVYYCAARLSGRTAGSRTYYAEGQYDYRGQGTQVTVSS
notes: on phage in the phage ELISA
B2: NBX0633 (VHH)
VHH: QVQLQESGGGLVQPGGSLRLSCTASGTIFRSKSMAWYRQAPGQGRETVAHISGLGHTNYVESVKGRFTVSRDDAKNAVYLQMSSLKPEDTAVYYCNTFTAAFSWGQGTQVTVSS
notes: on phage in the phage ELISA
B3: NBX0815 (VHH)
VHH: QVQLQESGGGLVQAGGSLRLSCAASGRTFSSYAMGWFRQSPGKDREFVAAVSWSGGSTYYADSLKGRFTISRDNAKNTVYLQMNSLKPEDTADYYCAAQRVMDYYRPRTESAYAYWGQGTRVTVSS
notes: on phage in the phage ELISA
B4: NBX0822 (VHH)
VHH: QVQLQESGGGLVRPGDSLTLSCTYSGQTFTNSGMAWFRQRPGKEREFVAAVSRSGLGRRYADSVRGRFTITRDNGKNTANLQMDSLKPEDTAVYSCAATTLDWGPRGPYRYWGQGTQVTVSS
notes: on phage in the phage ELISA
B5: NBX0618 (VHH)
VHH: QVQLQESGGGLVQPGGSLRLSCAASGSIFSFNAMGWYRQAPGKQRELVAAITKGGSTSYADSVKGRFTISVDNAKNTVYLQMNSLTPEDTAVYYCNVKTLRSALFPGYEYWGQGTQVTVSS
notes: on phage in the phage ELISA
B6: NBX0616 (VHH)
VHH: QVQLQESGGGLVQAGGSLRLSCATSGLTFSSYAMGWFRQAPGKEREFVATISWSGKSTRYSDSVKGRFTISRDNAKNTVYLQMNSLKPEDTAVYYCAADYQRLGLLRVGVAEYDYWGQGIQVTVSS
notes: on phage in the phage ELISA
B7: NBX0635 (VHH)
VHH: B6 VHH with S31N, P41A, S61A, Y80D, Q82R, D99E, V108D, E112D, D114S, I120T
notes: on phage in the phage ELISA
B8: NBX0813 (VHH)
VHH: QVQLQESGGGLVQAGGSLRLSCVVSGMLFSIRNMRWYRQAPGKQRELVAQIGSSGNTDYVESVKGRFTISRDNAKNTVYLQMNSLKPEDTAVYFCNALNYWGKGTLVTVSS
notes: on phage in the phage ELISA
B9: NBX0821 (VHH)
VHH: B8 VHH with S53T, N56A, E61G, K64E, A74P, K103E
notes: on phage in the phage ELISA
B10: NBX0823 (VHH)
VHH: QVQLQQSGGGLVQTGGSLRLSCAASGSIFSIDFMGWYRQAPGNPREFVARIRGGNTYYADSVKGRFNISRDNAENTVYMQMNSLKSEDTAVYYCNAQITMRGGTWSTSEYWGQGTQVNVSS
notes: on phage in the phage ELISA
B11: NBX0820 (VHH)
VHH: QVQLQESGGGLVQTGGSLRLSCAASGRTFSNYVIGWFRQAPGKEREFVAAVGRGINSAYHATHYSESVKDRFTTSRDNAKNTGFLQMNSLKTEDTAVYYCAVTSRWGQFDRTDFNSWGQGTQVTVSS
notes: on phage in the phage ELISA
B12: NBX0824 (VHH)
VHH: QVQLQESGGGLVQAGGSLRLTCAASGRTLSSYLSSYAMGWFRQAPGKERESVATITWNGDRTLYADAVKGRFTISRDNAKNTVYLQMNSVIPEDTAVYYCAADTVGRWRSTLSVRDEYDYWGQGTQVTVAS
notes: on phage in the phage ELISA
B13: NBX0621 (VHH)
VHH: QVQLQESGGGLVQAGGSLRLSCAASGRTFSTYSMGWFRQVPGKEREFVAAIRWSGGSRTYADSVKGRFTISRDNTKNVVYLQMTSLKPEDTAVYYCAADRDGYSSYAHQYDYWGQGTQVTVSS
notes: on phage in the phage ELISA
B14: NBX0628 (VHH)
VHH: B13 VHH with E6Q, A14V, T31S, S33A, R52K, K65A, S105R
notes: on phage in the phage ELISA
B15: NBX0602 (VHH)
VHH: QVQLQESGGGLVQAGDSLRLSCAASGRTFSRYAMGWFRQAPGKEREFVAAVDWSGGSTAYADSVKGRFTISRDNAKNTVYLQMNSLKPDDTAVYYCAARARDVYGRAWYVEDSSTYDYWGQGTQVTVSS
notes: on phage in the phage ELISA
B16: NBX0825 (VHH)
VHH: QVQLQESGGGVVETGGSLSVSCVASGRTFSAYTMAWFRQSPGKEREFVASMSRGSAAYYTDSVRGRFAISRVGDKNTVHLQMRDLKPEDTAVYYCAGGSPGSSQIATPEAYTYWGQGTQVTVSA
notes: on phage in the phage ELISA
B17: NBX0730 (VHH)
VHH: QVQLQESGGGLVQTGDSLRLACAASGRTFSSYPMAWYRQAPGQEREFVAGINRNGNIPVYADSVKGRFTISRDNAKNTVYLQMNNLKPEDTAVYYCAARTIYDSHYTSWGQGTQVTVSS
notes: on phage in the phage ELISA
B18: NBX0723 (VHH)
VHH: QVQLQESGGGLVQAGGSLRLSCAASGRTFSSYPMGWFRQAPGSEREQIAGISRSGVPGKYADSVSGRFTISRDNAKNTLYLQMNSLKPEDTAVYYCAARSIYSNNYSYWGQGTQVTVSS
notes: on phage in the phage ELISA
B19: NBX0725 (VHH)
VHH: B18 VHH with E6Q, A23T, S43K, V56N, S100Q
notes: on phage in the phage ELISA
B20: NBX0745 (VHH)
VHH: B18 VHH with S43K, V56D, D62A, S100E
notes: on phage in the phage ELISA
B21: NBX0724 (VHH)
VHH: B18 VHH with E6Q, P57S
notes: on phage in the phage ELISA
B22: NBX0746 (VHH)
VHH: B18 VHH with P33A, Q39R, S43K, V56N, S100Q
notes: on phage in the phage ELISA
B23: NBX0722 (VHH)
VHH: B18 VHH with A23R, S43K, V56D, D62A, S100Q
notes: on phage in the phage ELISA

Target: T1, PirA (Vibrio parahaemolyticus)
T1 construct: also called JHE-like toxin PirA-like; vp19
T1 chain: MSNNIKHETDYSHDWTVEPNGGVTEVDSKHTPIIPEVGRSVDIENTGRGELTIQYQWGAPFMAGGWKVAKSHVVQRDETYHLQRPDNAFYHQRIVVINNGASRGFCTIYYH
Assay: phage ELISA, antigen-coated wells

Binder	binding above PBS-coated wells [%]
B1	≥ 50
B2	≥ 50
B3	≥ 50
B4	≥ 50
B5	≥ 50
B6	≥ 50
B7	≥ 50
B8	≥ 50
B9	≥ 50
B10	≥ 50
B11	≥ 50
B12	≥ 50
B13	≥ 50
B14	≥ 50
B15	≥ 50
B16	≥ 50

Target: T2, VP28 (White spot syndrome virus)
T2 construct: Recombinant antigen; also called Coat protein VP28
T2 chain: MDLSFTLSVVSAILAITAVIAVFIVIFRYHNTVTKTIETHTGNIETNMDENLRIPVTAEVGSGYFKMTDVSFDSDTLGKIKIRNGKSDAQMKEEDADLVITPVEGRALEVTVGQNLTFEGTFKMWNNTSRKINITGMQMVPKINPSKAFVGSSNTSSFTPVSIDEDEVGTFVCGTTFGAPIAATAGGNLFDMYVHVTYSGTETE
Assay: phage ELISA, antigen-coated wells

Binder	binding above PBS-coated wells [%]
B17	≥ 50
B18	≥ 50
B19	≥ 50
B20	≥ 50
B21	≥ 50
B22	≥ 50
B23	≥ 50
